Patent US20150344570A1 (published 2015)

The binders below were run against T1, FcγRIIIa (human, UniProt P08637 17-208) (assay: SPR (Biacore), antibody captured on antigen-peptide chip, FcγR as analyte; binding of He Ab / binding of HeCon Ab GpH7-A5/GpH7-B3/GpL16-k0 x 100).
T1 construct: extracellular domain; also called 3a; FcgRIIIa
T1 sequence (P08637 17-208): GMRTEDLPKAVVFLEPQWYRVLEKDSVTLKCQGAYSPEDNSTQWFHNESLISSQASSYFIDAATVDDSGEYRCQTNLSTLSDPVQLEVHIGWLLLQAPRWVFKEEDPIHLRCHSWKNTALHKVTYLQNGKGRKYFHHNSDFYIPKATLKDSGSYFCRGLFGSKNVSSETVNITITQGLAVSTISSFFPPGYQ

Row | He/Con_3a | Binder
1 | 105 relative to control = 100 | GpH7-A5/GpH7-B3 variant S324_01G/GpL16-k0 (He Ab) (antibody, human IgG1, kappa, Heterodimerized anti-glypican-3 antibody; the alteration stands only in the GpH7-B3 chain) heavy 1: not shown heavy 2: not shown light: DIVMTQSPLSLPVTPGEPASISCQASESLVHSNRNTYLHWYLQKPGQSPQLLIYKVSNRFSGVPDRFSGSGSGTDFTLKISRVEAEDVGVYYCSQNTHVPPTFGQGTKVEIERTVAAPSVFIFPPSDEQLKSGTASVVCLLNNFYPREAKVQWKVDNALQSGNSQESVTEQDSKDSTYSLSSTLTLSKADYEKHKVYACEVTHQGLSSPVTKSFNRGEC

These binders were tested against T1, FcγRIIIa (assay: SPR (Biacore), antibody captured on antigen-peptide chip, FcγR as analyte; binding of Ho Ab / binding of HoCon Ab GpH7-B3/GpL16-k0 x 100).
Procedure: Analysis of interaction between objective antibody and the FcγR was carried out using Biacore T100 (GE Healthcare). HBS-EP+ (GE Healthcare) was used as the running buffer, and the measurement temperature was set to 25° C. Chips produced by immobilizing the antigen peptide by the amine coupling method to a Series S Sencor Chip CM5 (GE Healthcare), or alternatively, chips produced by allowing preliminarily biotinylated antigen peptides to interact with and immobilize onto a Series S Sensor Chip SA (certified) (GE Healthcare) were used. Antibodies of interest were captured onto an antigen peptide-immobilized chip, and allowed to interact to each FcγR diluted with running buffer. To regenerate and repeatedly use the chip, the antibodies captured on the chip were washed off by reacting 10 mM glycine-HCl, pH 1.5.

Row | Binder | Ho/Con_3a
2 | GpH7-B3 variant S239_10E/GpL16-k0 (Ho Ab) (antibody, human IgG1, kappa, Homodimerized anti-glypican-3 antibody; the alteration stands in both H chains (GpH7-B3 = GpH7-G1d with K439E)) heavy: not shown light: DIVMTQSPLSLPVTPGEPASISCQASESLVHSNRNTYLHWYLQKPGQSPQLLIYKVSNRFSGVPDRFSGSGSGTDFTLKISRVEAEDVGVYYCSQNTHVPPTFGQGTKVEIERTVAAPSVFIFPPSDEQLKSGTASVVCLLNNFYPREAKVQWKVDNALQSGNSQESVTEQDSKDSTYSLSSTLTLSKADYEKHKVYACEVTHQGLSSPVTKSFNRGEC | 252 relative to control = 100
3 | GpH7-B3 variant S324_20W/GpL16-k0 (Ho Ab) (antibody, human IgG1, kappa, Homodimerized anti-glypican-3 antibody; the alteration stands in both H chains) heavy: not shown light: DIVMTQSPLSLPVTPGEPASISCQASESLVHSNRNTYLHWYLQKPGQSPQLLIYKVSNRFSGVPDRFSGSGSGTDFTLKISRVEAEDVGVYYCSQNTHVPPTFGQGTKVEIERTVAAPSVFIFPPSDEQLKSGTASVVCLLNNFYPREAKVQWKVDNALQSGNSQESVTEQDSKDSTYSLSSTLTLSKADYEKHKVYACEVTHQGLSSPVTKSFNRGEC | 102 relative to control = 100
4 | GpH7-B3 variant S324_14T/GpL16-k0 (Ho Ab) (antibody, human IgG1, kappa, Homodimerized anti-glypican-3 antibody; the alteration stands in both H chains) heavy: not shown light: DIVMTQSPLSLPVTPGEPASISCQASESLVHSNRNTYLHWYLQKPGQSPQLLIYKVSNRFSGVPDRFSGSGSGTDFTLKISRVEAEDVGVYYCSQNTHVPPTFGQGTKVEIERTVAAPSVFIFPPSDEQLKSGTASVVCLLNNFYPREAKVQWKVDNALQSGNSQESVTEQDSKDSTYSLSSTLTLSKADYEKHKVYACEVTHQGLSSPVTKSFNRGEC | 108 relative to control = 100
5 | GpH7-B3 variant S239_18N/GpL16-k0 (Ho Ab) (antibody, human IgG1, kappa, Homodimerized anti-glypican-3 antibody; the alteration stands in both H chains) heavy: not shown light: DIVMTQSPLSLPVTPGEPASISCQASESLVHSNRNTYLHWYLQKPGQSPQLLIYKVSNRFSGVPDRFSGSGSGTDFTLKISRVEAEDVGVYYCSQNTHVPPTFGQGTKVEIERTVAAPSVFIFPPSDEQLKSGTASVVCLLNNFYPREAKVQWKVDNALQSGNSQESVTEQDSKDSTYSLSSTLTLSKADYEKHKVYACEVTHQGLSSPVTKSFNRGEC | 116 relative to control = 100
6 | GpH7-B3 variant S324_09D/GpL16-k0 (Ho Ab) (antibody, human IgG1, kappa, Homodimerized anti-glypican-3 antibody; the alteration stands in both H chains) heavy: not shown light: DIVMTQSPLSLPVTPGEPASISCQASESLVHSNRNTYLHWYLQKPGQSPQLLIYKVSNRFSGVPDRFSGSGSGTDFTLKISRVEAEDVGVYYCSQNTHVPPTFGQGTKVEIERTVAAPSVFIFPPSDEQLKSGTASVVCLLNNFYPREAKVQWKVDNALQSGNSQESVTEQDSKDSTYSLSSTLTLSKADYEKHKVYACEVTHQGLSSPVTKSFNRGEC | 101 relative to control = 100
7 | GpH7-B3 variant S324_06M/GpL16-k0 (Ho Ab) (antibody, human IgG1, kappa, Homodimerized anti-glypican-3 antibody; the alteration stands in both H chains) heavy: not shown light: DIVMTQSPLSLPVTPGEPASISCQASESLVHSNRNTYLHWYLQKPGQSPQLLIYKVSNRFSGVPDRFSGSGSGTDFTLKISRVEAEDVGVYYCSQNTHVPPTFGQGTKVEIERTVAAPSVFIFPPSDEQLKSGTASVVCLLNNFYPREAKVQWKVDNALQSGNSQESVTEQDSKDSTYSLSSTLTLSKADYEKHKVYACEVTHQGLSSPVTKSFNRGEC | 114 relative to control = 100
8 | GpH7-B3 variant S298_03V/GpL16-k0 (Ho Ab) (antibody, human IgG1, kappa, Homodimerized anti-glypican-3 antibody; the alteration stands in both H chains) heavy: not shown light: DIVMTQSPLSLPVTPGEPASISCQASESLVHSNRNTYLHWYLQKPGQSPQLLIYKVSNRFSGVPDRFSGSGSGTDFTLKISRVEAEDVGVYYCSQNTHVPPTFGQGTKVEIERTVAAPSVFIFPPSDEQLKSGTASVVCLLNNFYPREAKVQWKVDNALQSGNSQESVTEQDSKDSTYSLSSTLTLSKADYEKHKVYACEVTHQGLSSPVTKSFNRGEC | 110 relative to control = 100

Second part, the binder after the results:

Row | Ho/Con_3a | Binder
9 | 107 relative to control = 100 | GpH7-B3 variant T335_06M/GpL16-k0 (Ho Ab) (antibody, human IgG1, kappa, Homodimerized anti-glypican-3 antibody; the alteration stands in both H chains) heavy: not shown light: DIVMTQSPLSLPVTPGEPASISCQASESLVHSNRNTYLHWYLQKPGQSPQLLIYKVSNRFSGVPDRFSGSGSGTDFTLKISRVEAEDVGVYYCSQNTHVPPTFGQGTKVEIERTVAAPSVFIFPPSDEQLKSGTASVVCLLNNFYPREAKVQWKVDNALQSGNSQESVTEQDSKDSTYSLSSTLTLSKADYEKHKVYACEVTHQGLSSPVTKSFNRGEC
10 | 112 relative to control = 100 | GpH7-B3 variant S337_16H/GpL16-k0 (Ho Ab) (antibody, human IgG1, kappa, Homodimerized anti-glypican-3 antibody; the alteration stands in both H chains) heavy: not shown light: DIVMTQSPLSLPVTPGEPASISCQASESLVHSNRNTYLHWYLQKPGQSPQLLIYKVSNRFSGVPDRFSGSGSGTDFTLKISRVEAEDVGVYYCSQNTHVPPTFGQGTKVEIERTVAAPSVFIFPPSDEQLKSGTASVVCLLNNFYPREAKVQWKVDNALQSGNSQESVTEQDSKDSTYSLSSTLTLSKADYEKHKVYACEVTHQGLSSPVTKSFNRGEC
11 | 146 relative to control = 100 | GpH7-B3 variant Y296_20W/GpL16-k0 (Ho Ab) (antibody, human IgG1, kappa, Homodimerized anti-glypican-3 antibody; the alteration stands in both H chains) heavy: not shown light: DIVMTQSPLSLPVTPGEPASISCQASESLVHSNRNTYLHWYLQKPGQSPQLLIYKVSNRFSGVPDRFSGSGSGTDFTLKISRVEAEDVGVYYCSQNTHVPPTFGQGTKVEIERTVAAPSVFIFPPSDEQLKSGTASVVCLLNNFYPREAKVQWKVDNALQSGNSQESVTEQDSKDSTYSLSSTLTLSKADYEKHKVYACEVTHQGLSSPVTKSFNRGEC
12 | 108 relative to control = 100 | GpH7-B3 variant S337_01G/GpL16-k0 (Ho Ab) (antibody, human IgG1, kappa, Homodimerized anti-glypican-3 antibody; the alteration stands in both H chains) heavy: not shown light: DIVMTQSPLSLPVTPGEPASISCQASESLVHSNRNTYLHWYLQKPGQSPQLLIYKVSNRFSGVPDRFSGSGSGTDFTLKISRVEAEDVGVYYCSQNTHVPPTFGQGTKVEIERTVAAPSVFIFPPSDEQLKSGTASVVCLLNNFYPREAKVQWKVDNALQSGNSQESVTEQDSKDSTYSLSSTLTLSKADYEKHKVYACEVTHQGLSSPVTKSFNRGEC
13 | 119 relative to control = 100 | GpH7-B3 variant T335_05P/GpL16-k0 (Ho Ab) (antibody, human IgG1, kappa, Homodimerized anti-glypican-3 antibody; the alteration stands in both H chains) heavy: not shown light: DIVMTQSPLSLPVTPGEPASISCQASESLVHSNRNTYLHWYLQKPGQSPQLLIYKVSNRFSGVPDRFSGSGSGTDFTLKISRVEAEDVGVYYCSQNTHVPPTFGQGTKVEIERTVAAPSVFIFPPSDEQLKSGTASVVCLLNNFYPREAKVQWKVDNALQSGNSQESVTEQDSKDSTYSLSSTLTLSKADYEKHKVYACEVTHQGLSSPVTKSFNRGEC
14 | 114 relative to control = 100 | GpH7-B3 variant T335_09D/GpL16-k0 (Ho Ab) (antibody, human IgG1, kappa, Homodimerized anti-glypican-3 antibody; the alteration stands in both H chains) heavy: not shown light: DIVMTQSPLSLPVTPGEPASISCQASESLVHSNRNTYLHWYLQKPGQSPQLLIYKVSNRFSGVPDRFSGSGSGTDFTLKISRVEAEDVGVYYCSQNTHVPPTFGQGTKVEIERTVAAPSVFIFPPSDEQLKSGTASVVCLLNNFYPREAKVQWKVDNALQSGNSQESVTEQDSKDSTYSLSSTLTLSKADYEKHKVYACEVTHQGLSSPVTKSFNRGEC
15 | 105 relative to control = 100 | GpH7-B3 variant Y300_08L/GpL16-k0 (Ho Ab) (antibody, human IgG1, kappa, Homodimerized anti-glypican-3 antibody; the alteration stands in both H chains) heavy: not shown light: DIVMTQSPLSLPVTPGEPASISCQASESLVHSNRNTYLHWYLQKPGQSPQLLIYKVSNRFSGVPDRFSGSGSGTDFTLKISRVEAEDVGVYYCSQNTHVPPTFGQGTKVEIERTVAAPSVFIFPPSDEQLKSGTASVVCLLNNFYPREAKVQWKVDNALQSGNSQESVTEQDSKDSTYSLSSTLTLSKADYEKHKVYACEVTHQGLSSPVTKSFNRGEC
16 | 103 relative to control = 100 | GpH7-B3 variant T335_08L/GpL16-k0 (Ho Ab) (antibody, human IgG1, kappa, Homodimerized anti-glypican-3 antibody; the alteration stands in both H chains) heavy: not shown light: DIVMTQSPLSLPVTPGEPASISCQASESLVHSNRNTYLHWYLQKPGQSPQLLIYKVSNRFSGVPDRFSGSGSGTDFTLKISRVEAEDVGVYYCSQNTHVPPTFGQGTKVEIERTVAAPSVFIFPPSDEQLKSGTASVVCLLNNFYPREAKVQWKVDNALQSGNSQESVTEQDSKDSTYSLSSTLTLSKADYEKHKVYACEVTHQGLSSPVTKSFNRGEC
